Source: the DeepSol protein solubility set

Assay: soluble on expression in E. coli; label from the status in PepcDB or PDB records

Sequence | soluble on expression in E. coli
ANADNYKNVINRTGAPQYMKDYDYDDHQRFNPFFDLGAWHGHLLPDGPNTMGGFPGVALLTEEYINFMASNFDRLTVWQDGKKVDFTLEAYSIPGALVQKLTAKDVQVEMTLRFATPRTSLLETKITSNKPLDLVWDGELLEKLEAKEGKPLSDKTIAGEYPDYQRKISATRDGLKVTFGKVRATWDLLTSGESEYQVHKSLPVQTEINGNRFTSKAHINGSTTLYTTYSHLLTAQEVSKEQMQIRDILARPAFYLTASQQRWEEYLKKGLTNPDATPEQTRVAVKAIETLNGNWRSPGGAVKFNTVTPSVTGRWFSGNQTWPWDTWKQAFAMAHFNPDIAKENIRAVFSWQIQPGDSVRPQDVGFVPDLIAWNLSPERGGDGGNWNERNTKPSLAAWSVMEVYNVTQDKTWVAEMYPKLVAYHDWWLRNRDHNGNGVPEYGATRDKAHNTESGEMLFTVKKGDKEETQSGLNNYARVVEKGQYDSLEIPAQVAASWESGRDDAAVFGFIDKEQLDKYVANGGKRSDWTVKFAENRSQDGTLLGYSLLQESVDQASYMYSDNHYLAEMATILGKPEEAKRYRQLAQQLADYINTCMFDPTTQFYYDVRIEDKPLANGCAGKPIVERGKGPEGWSPLFNGAATQANADAVVKVMLDPKEFNTFVPLGTAALTNPAFGADIYWRGRVWVDQFWFGLKGMERYGYRDDALKLADTFFRHAKGLTADGPIQENYNPLTGAQQGAPNFSWSAAHLYMLYNDFFRKQ | soluble
NTIQQLMMILNSASDQPSENLISYFNNCTVNPKESILKRVKDIGYIFKEKFAKAVGAGCVAIGSQRYKLGVRLYYRVMESMLKSEEERLSIQNFSKLLNDNIFHMSLLACALEVVMATYSRSTSQNLDSGTDLSFPWILNVLNLKAFDFYKVIESFIKAEGNLTREMIKHLERCEHRIMESLAWLSDSPLFDLIKQSKTREGKSTSLSLFYKKVYRLAYLRLNTLCERLLSEHPELEHIIWTLFQHTLQNEYELMRDRHLDQIMMCSMYGICKVKNIDLKFKIIVTAYKDLPHAVQETFKRVLIKEEEYDSIIVFYNSVFMQRLKTNILQYASTRPPTLSPIPHI | soluble
MACAAARSPADQDRFICIYPAYLNNKKTIAEGRRIPISKAVENPTATEIQDVCSAVGLNVFLEKNKMYSREWNRDVQYRGRVRVQLKQEDGSLCLVQFPSRKSVMLYAAEMIPKLKTRTQLEHHHHHH | soluble
MFNYSTKDANLSNKTILVTGAGAGIGRTAALTYAQLGATVILLGKTVSKLEAVYDEIVALGLAEPAIIPLDLKGATKQNYIDMSSTISSQFGHLDGVLLNASILGELTPFTQMHEQVFNDVMKVNVTAQCLLAQTLIPTLLLAPNASLVFTSSGVGSQGRAYWGQYSISKFATEGMMQVIADEYEGSNLRTNAINPGATNTNMRSCAFPAEDKDELATPEDIMPLYVYLMSDDSLEINGQTLKAQ | not soluble
MAHHHHHHMAVPHGMLISRNDITPDSLVDVPGDRKIVEQISNTMANSSLFKMEKEDHTLANLLRMKLHESPFVQIAGYRVPHPTKHNVELRVQTASNGTDAPVPAPKKALQDAVDGCLKDLEVFEEQLRREAQLKGLEASPS | not soluble
GPLGSSYSMEQVEGITSEYIVKNADMFAVAVSLVSGKILYISNQVASIFHCKKDAFSDAKFVEFLAPHDVSVFHSYTTPYKLPPWSVCSGLDSFTQECMEEKSFFCRVSVGKHHENEIRYQPFRMTPYLVKVQEQQGAESQLCCLLLAERVHSGYEAPRIPPEKRIFTTTHTPNCLFQAVDERAVPLLGYLPQDLIETPVLVQLHPSDRPLMLAIHKKILQAGGQPFDYSPIRFRTRNGEYITLDTSWSSFINPWSRKISFIIGRHKVRVGPLNEDVFAAPPCPEEKTPHPSVQELTEQIHRLLMQPVP | soluble
MSEQKIEVVGKLGSTYGIRGWLRLYSSTEKAESIFDYQPWFLKIKGQWQLIELESWRYHSNDLIVKLKGTEDREAAQLLTNAEIGVDLSVFPKLGEEDYYWHDLINCQVVNLENYTMGVVTELMETGSNDVLVVRANSKDAFGKQERLIPFLYKQVVKRVDLSTKTITVDWDAGFLEHHHHHH | soluble
MSSKLVLVLNCGSSSLKFAIIDAVNGEEYLSGLAECFHLPEARIKWKMDGNKQEAALGAGAAHSEALNFIVNTILAQKPELSAQLTAIGHRIVHGGEKYTSSVVIDESVIQGIKDAASFAPLHNPAHLIGIEEALKSFPQLKDKNVAVFDTAFHQTMPEESYLYALPYNLYKEHGIRRYGAHGTSHFYVTQEAAKMLNKPVEELNIITCHLGNGGSVSAIRNGKCVDTSMGLTPLEGLVMGTRSGDIDPAIIFHLHDTLGMSVDAINKLLTKESGLLGLTEVTSDCRYVEDNYATKEDAKRAMDVYCHRLAKYIGAYTALMDGRLDAVVFTGGIGENAAMVRELSLGKLGVLGFEVDHERNLAARFGKSGFINKEGTRPAVVIPTNEELVIAQDASRLTA | soluble
MGSDKIHHHHHHMIQKGLEGVKICESSICYLDGINGRLYYRGIPVEELAEKSTFEETAYFLWYGKLPTKSELEEFKRKMADYRELPAEALGILYHLPKNLHYIDVLKIFLSIHGSMDGNDEDLREKAIRVASVFPTILAYYYRYSKGKELIRPRKDLSHVENFYYMMFGERNEKIRLLESAFILLMEQDINASTFAALVIASTLSDLYSCIVGALGALKGPLHGGASEKVPPMLEEIGSEDRVEEFVQKCLKEKRKIMGFGHRVYKTYDPRAVFLKRVLQEHFPDSKLFRIASKLEEYIVSNKIKNIYPNVDLYSSVLFEELGFPRNMFTALFATARVVGWTAHVIEYVSDNKLIRPTSEYVGPMDVEYIPIERRDENG | not soluble
MSANLPPAFKPIAHYIKIANENASRDPVIYYWSLLCMALGPVETTFDEISWKLLQTSIRLEKDHINDRDSLREYIDEPGGVVNNCQRAQNISMEIEQKNVSCEKLREKIAKINQKILIGKGKLSEVNEELSKKQNFEESLKQKIEIMELQINKNQSKKDKEVKSINVLIRLVAYRKLTLIKEVMDLFKVKIDGGPASEAITTKNCQCQLIDTIRGLHIPQITHIFNHSEAPTLTALQNLTHLFNVICKVLHFAPKYPILTNLQIINPIDQKSSIFTEKCWKKKADREKLIEGMSWLSKNISHLRESCGIPTMATDRILGTLEEWIRLVIRKETVFERPINSIFSPANLLIDYQIPNISYHS | not soluble
MLSGPHPSPTFRPNPCPWPCLHSLWMEISPTQLCFLSPGPSPQSPSCCFQGMNSGSELGKLWRKLFKGIPRLSVSHFDFYCGTCVLLGRPQIPQGSSLGNDIDQYPVVFRNASDQGSWMQLEMLLRKLSDLVWTSDALSDKILEDGLVP | soluble
MGSDKIHHHHHHMNIAIFGAGSTGCYLAGQLCISELQVSLICRPAIKQKIIANNGITLTDYNGFKQTIMPQALITDINQESSIYGKFDVVFVTLKCHQVSSIANQLMAITHDNSSIIFMQNGLGSFDSIKDSLDHYSLLQGITPFNVLQLPNAVFHKGTEGVFTLQANPHTIAIQSALVNHGFGCDIEADFTPMIYGKLLLNLNNALNAVTDLPIKQQLSHYKNRRILAKAMKEWLAVCEAADIQLHQYTKVKPSWLPTILLLPNVLFTVLAKQMLDIDPKARSSMWEDIQAKRKTEVDYINGAVVSIGKKYGIKTPVNQAIVEQIKQLEQRH | not soluble
MADTSPRESKLNKQDQDLHLEIDETGLACKSEVKKRWLGARGTAGLYGNGKYYYEVTITSKGLCRVGWATLGGSLNIGKGLDSFGYGGTGMKSTHKKFDDYGLPFTLNDVIGCYLDLDSRTIWWSKNGEQFPAAFSIDVKYKNSNTCLFPAVLCQNSSLSVNFGSQPFKFPPGNQFTAVSDAPNENVNWWSYEEQNSFEHVVVKLPFAVEEDVHNEFRMHTKLMLTELKRTQCKQDKDGSIRRTLQPISKTICAFLNTDGGRLFLGVNDDKVIKGISMSKNMIYHFFGSLRHMCENFKPCSPLCRIKVSILEVIPVGVIKVKLRKADLLKEEAHDFPKLACHSVGGSFCDCFLEINKAPTKQYLLIIQVSPPNPNSRTTIFQNEEGLVYRRRMASNKCVYLDDLRRMMNEKNQVFVDLPDEARAEIDSFSKFD | not soluble
MGSDKIHHHHHHMTEITTLSQFLTTAKTQFQVYDLGRRVQHIDMLAFHQIESLATPYPYPIQGHAQFAIVFWDASQQHFIWFLKLALDEQGLLSPAPRSQFIEMVLSALGQDPTQPLSNEQQEHLANNPFSFTPSQEKLAVFNALVRKQLGQHASVQYEFAMQYLSGQIAPSQWQHIGIQGIADVCVRANELDHEAKLLTSFDSAAIEVQIALCQCLEHVQISPLLANKILNKLTAAEPEHKAYFLRALASNSELSQKALAHLHQGSNLDANTLISIAGRNWTVLKQELSRSIYLEALALQPQTFFNQIFADIVAIPSLRNLLLGELRNPNRSIQLSQAIGGLFKAASK | not soluble
